Reference: PMC5452487

Columns and labels:
Details in all cases: EMSA with 0.75 ug rArcR-ACME and 61.2 pmol biotinylated probe; buffer, salt, pH and temperature not given in the material
[1] = molecular target: T1, rArcR-ACME (Staphylococcus aureus USA300_FPR3757) (UniProt E9KNS2); assay: competition
T1 sequence: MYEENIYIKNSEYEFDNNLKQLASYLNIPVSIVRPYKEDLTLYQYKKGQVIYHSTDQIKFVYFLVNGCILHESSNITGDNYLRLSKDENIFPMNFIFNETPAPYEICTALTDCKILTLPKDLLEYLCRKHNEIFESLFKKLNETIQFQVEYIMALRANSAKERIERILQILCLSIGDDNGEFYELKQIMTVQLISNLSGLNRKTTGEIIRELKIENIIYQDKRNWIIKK

[2] = molecular target: T1, rArcR-ACME (Staphylococcus aureus USA300_FPR3757); assay: EMSA
[3] = molecular target: T1, rArcR-ACME (Staphylococcus aureus USA300_FPR3757); assay: UV cross-linking

Sequence | binding [1] | binding [2] | binding [3]
CAAATGATCACAGCATTTGGTACAGGAATCGGTGGCGACTTTGATCTAGCGAAAGCAAGATATCACAAAATCGTCATTATGACTGATGCCG (double strand) [gyrB fragment, non-specific competitor, 91 bp] | no binding | – | –
GTACAAAATACATATTCATACAAAATTTTGCATTGAATAAATCTATATATGTGAAAACCCTCCCTAAACAATTGTGAATTAAATCACACGATGTTTTTTGAAAGCGTTTTATAATGTGAATGT (double strand) [arcACME promoter fragment, unlabelled specific competitor] | binds | – | –
GTACAAAATACATATTCATACAAAATTTTGCATTGAATAAATCTATATATGTGAAAACCCTCCCTAAACAATTGTGAATTAAATCACACGATGTTTTTTGAAAGCGTTTTATAATGTGAATGT (double strand) [arcACME promoter probe, 123 bp] | – | binds | binds
